Data set [1] has as its system alpha-1,2-fucosyltransferase His6-Propeptide-WbgL. Put plainly: Acceptor substrate spectrum by HPAEC-PAD activity assay. In kind it is biochemical, Escherichia coli O126. Conditions: acceptor substrate instead of 5 mM lactose; 2 mM GDP-β-L-fucose; relative to lactose. The protocol: (§1) Enzyme activity was also determined by HPAEC-PAD analysis for detection of 2′-fucosyllactose. The assay solution contained 2 mM GDP-β-L-fucose, 5 mM lactose, 50 mM Tris-HCl pH 7.6 with 2 mM MnCl2, 1 mM DTT, 1 U alkaline phosphatase in a total volume of 175 μl and was incubated at 30° C. after the addition of […] and purified enzyme solution. The reaction was stopped by heating for 5 min at 95° C. at different time points where the conversion rate was linear. The centrifuged samples were analysed by Dionex HPAEC-PAD (Dionex Corporation, Sunnyvale, Calif., USA) on CarboPac PA1 column using Chromeleon™ 6.40 Software. The elution was carried out with 50 mM NaOH at 30° C. (flow rate 1 mL/min, 50 μL injection volume). The concentration of the generated trisaccharide 2′-fucosyllactose was determined by a standard calibration curve with commercially available 2′-fucosyllactose and used for subsequent calculation of enzyme activity (see FIG. 6).
(§2) For both, HPAEC-PAD and photometric assays, 1 U of His6-Propeptide-WbgL is the amount of enzyme which produces 1 μmol product (GDP or 2′-fucosyllactose) per minute under standard assay conditions.
The substrate spectrum of recombinant His6-Propeptide-WbgL was analysed by HPAEC-PAD according to activity assay described above. Instead of 5 mM lactose different acceptor substrates were tested to determine the relative activity compared to lactose.

The subject of data set [2] is C[C@@H]1O[C@H](OP(=O)(O)OP(=O)(O)OC[C@H]2O[C@@H](n3cnc4c(=O)[nH]c(N)nc43)[C@H](O)[C@@H]2O)[C@@H](O)[C@H](O)[C@@H]1O. Put plainly: Kinetic analysis by photometric pyruvate kinase/lactate dehydrogenase assay (initial rates, Michaelis-Menten). The data set is classed as biochemical, Escherichia coli O126. Conditions: other: lactose varied 0.05 to 40 mM at 2 mM GDP-beta-L-fucose, GDP-beta-L-fucose varied 0.02 to 4 mM at 10 mM lactose, 30° C., pH 7.6. The protocol: (§3) The photometric assay was performed using the pyruvate kinase/lactate dehydrogenase system for the detection of released GDP (Barratt, D. H., L. Barber, et al. (2001). “Multiple, distinct isoforms of sucrose synthase in pea.” Plant Physiology 127(2): 655-664.). The reaction mixture for the microtiter plate assay contained 50 mM Tris-HCl pH 7.6, 2 mM GDP-beta-L-fucose, 5 mM Lactose, 1 mM phosphoenolpyruvate, 1 mM DTT, 0.25 mM NADH, 2 mM MnCl2, 5 U pyruvate kinase, and 5 U lactate dehydrogenase in a total volume of 250 μl. The reaction was started by addition of 100 μl enzyme solution and followed at 340 nm at 30° C. Control experiments for the detection of side activities were done without acceptor substrate lactose (see FIG. 5).
as §2
(§4) The kinetic constants of His6-Propeptide-WbgL for the acceptor substrate lactose and the donor substrate GDP-beta-L-fucose were derived from initial rate analysis at a variable substrate concentrations using the photometric assay described above. GDP-beta-L-fucose was varied from 0.02 mM to 4 mM at a constant concentration of 10 mM lactose and lactose was altered from 0.05 to 40 mM at a constant concentration of 2 mM GDP-beta-L-fucose. All data were determined by non linear-regression analysis according to the Michaelis-Menten equation using the Sigma Plot 10 software (SPSS Science Software GmbH, Erkrath, Germany).

Data set [3] concerns OC[C@H]1O[C@@H](O[C@H]2[C@H](O)[C@@H](O)C(O)O[C@@H]2CO)[C@H](O)[C@@H](O)[C@H]1O. The description is as above. The data set is classed as biochemical, Escherichia coli O126. As to conditions: other: lactose varied 0.05 to 40 mM at 2 mM GDP-beta-L-fucose, GDP-beta-L-fucose varied 0.02 to 4 mM at 10 mM lactose, 30° C., pH 7.6. The procedure:
as §3, §2, §4

The subject of data set [4] is E. coli BL21(DE3) ΔlacZ pDEST14-fkp pCOLA-lacY-fucP. Put plainly: Production of 2'-fucosyllactose in recombinant E. coli expressing a fucosyltransferase (HPLC). The data set is classed as cell-based, Escherichia coli. The protocol:
Cells E. coli BL21(DE3) ΔlacZ pDEST14-fkp pCOLA-lacY-fucP were transformed with pACYCDuet-1 carrying the appropriate fucosyltransferase gene. Colonies were grown on 2YT plates with the appropriate antibiotics. 5 ml over night cultures (2YT with antibiotics) were grown of each strain and from this cultures 15 ml mineral medium each were inoculated to 1%. Cells were grown using glycerol as carbon source and at OD600=0.5 were induced with 0.1 mM IPTG and 40 mM lactose and 30 mM fucose were added. Cultures were incubated at 30° C. and 120 rpm. Production of 2′-fucosyllactose was monitored HPLC analysis. The comparison of the amount of 2′-fucosyllactose (2′-FL) produced by expression of FucT2 from Helicobacter pylori compared to the expression of WbgL from Escherichia coli O126 is shown in the following table 1: […]

Data set [5] in a line: pH optimum and metal ion dependency of the enzyme (HPAEC-PAD assay). In kind it is biochemical. The procedure:
as §1
To study the optimal pH value for the activity of recombinant His6-Propeptide-WbgL, assays were performed at different pH values of a 50 mM Tris-HCl buffer ranging from pH 6.8 to 8.4. Optimal pH value was 7.6 (see. FIG. 8). Addition of metal ions Mn^2+ to standard assays allowed to investigate the metal ion dependency. All samples were analyzed HAPAEC-PAD as described above.

Consider `OC[C@H]1O[C@@H](O[C@@H]2[C@@H](CO)OC(O)(CO)[C@H]2O)[C@H](O)[C@@H](O)[C@H]1O` (mixture of isomers) [Lactulose], for which, in data set [1], the Relative activity turned out to be 124%.
Regarding `CC(=O)N[C@H]1C(O)O[C@H](CO)[C@H](O)[C@@H]1O` (stereo partly drawn) [D-GalNAc], the Relative activity in data set [1] was determined as 0%.
The same measure, in the same setting: with `N[C@H]1C(O)O[C@H](CO)[C@H](O)[C@@H]1O` (stereo partly drawn) [D-GalNH2] the figure was 0%; with `O=C[C@H](O)[C@@H](O)[C@@H](O)[C@H](O)CO` [D-Galactose], 71%; with `CC(=O)NC1C(O)OC(CO)C(OC2OC(CO)C(O)C(O)C2NC(C)=O)C1O` (stereo not shown) [LacDiNAc], 0%.
For the molecule `CC(=O)N[C@H]1C(O)O[C@H](CO)[C@@H](O[C@@H]2O[C@H](CO)[C@H](O)[C@H](O)[C@H]2O)[C@@H]1O` (stereo partly shown) [LacNAc Typ II], the Relative activity in data set [1] was 95%.
For `CC(=O)N[C@@H]1[C@@H](O[C@@H]2O[C@H](CO)[C@H](O)[C@H](O)[C@H]2O)[C@H](O)[C@@H](CO)O[C@@H]1O` [LacNAc Typ I], the Relative activity in data set [1] is listed as 28%.
For the molecule `OC[C@H]1O[C@@H](O[C@H]2[C@H](O)[C@@H](O)C(O)O[C@@H]2CO)[C@H](O)[C@@H](O)[C@H]1O` (stereo partly shown) [Lactose], the Relative activity in data set [1] turned out to be 100%.
For the molecule `OC[C@H]1O[C@@H](O[C@H]2[C@H](O)[C@@H](O)[C@H](OCc3ccccc3)O[C@@H]2CO)[C@H](O)[C@@H](O)[C@H]1O` [β-Benzyl-Lactose], the Relative activity in data set [1] was 50%.
For orientation: Km means the concentration of substrate that gives half-maximal velocity. What is called Vmax is the rate approached at saturating substrate. On to “recombinant alpha-1,2-fucosyltransferase His6-Propeptide-WbgL (Escherichia coli)”, for which, in data set [2], the Km amounted to 270 µM, the Vmax came out at 0.167 µmol/min/mg and the Vmax/Km was determined as 618 µL/min/mg. Also, in data set [3], the Km was 5300 µM, the Vmax was determined as 0.17 µmol/min/mg and the Vmax/Km was determined as 32 µL/min/mg.

B1: WbgL: alpha-1,2-fucosyltransferase WbgL from E. coli O126 (SEQ ID No. 2), expressed from pACYC-wbgL (protein, listed as Escherichia coli)
chain: MSIIRLQGGLGNQLFQFSFGYALSKINGTPLYFDISHYAENDDHGGYRLNNLQIPEEYLQYYTPKINNIYKLLVRGSRLYPDIFLFLGFCNEFHAYGYDFEYIAQKWKSKKYIGYWQSEHFFHKHILDLKEFFIPKNVSEQANLLAAKILESQSSLSIHIRRGDYIKNKTATLTHGVCSLEYYKKALNKIRDLAMIRDVFIFSDDIFWCKENIETLLSKKYNIYYSEDLSQEEDLWLMSLANHHIIANSSFSWWGAYLGSSASQIVIYPTPWYDITPKNTYIPIVNHWINVDKHSSC
In the case of B1, in data set [4] (0.1 mM IPTG, 40 mM lactose, 30 mM fucose, 30° C., 120 rpm), the “Yield 2′-FL” value is reported as 4.05 mM. Also, the “Amount of fucosylated product 2′-fucosyllactose compared to FucT2 from Helicobacter pylori” value in data set [4] (same cultures as Table 3) was “significantly higher”.

B2: His6-Propeptide-WbgL: recombinant WbgL with N-terminal His-Tag and S. hyicus lipase propeptide (513 amino acids), expressed from pETHIS6PropwbgL in E. coli (protein)
chain: NDSTTQTTTPLEVAQTSQQETHTHQTPVTSLHTATPEHVDDSKEATPLPEKAESPKTEVTVQPSSHTQEVPALHKKTQQQPAYKDKTVPESTIASKSVESNKATENEMSPVEHHASNVEKREDRLETNETTPPSVDREFSHKIINNTHVNPKTDGQTNVNVDTKTIDTVSPKDDRIDTAQPKQVDVPKENTTAQNKFTSQASDKKPTMSIIRLQGGLGNQLFQFSFGYALSKINGTPLYFDISHYAENDDHGGYRLNNLQIPEEYLQYYTPKINNIYKLLVRGSRLYPDIFLFLGFCNEFHAYGYDFEYIAQKWKSKKYIGYWQSEHFFHKHILDLKEFFIPKNVSEQANLLAAKILESQSSLSIHIRRGDYIKNKTATLTHGVCSLEYYKKALNKIRDLAMIRDVFIFSDDIFWCKENIETLLSKKYNIYYSEDLSQEEDLWLMSLANHHIIANSSFSWWGAYLGSSASQIVIYPTPWYDITPKNTYIPIVNHWINVDKHSSC
modifications: left off: small tags and cut ends
notes: recombinant WbgL with N-terminal His-Tag and S. hyicus lipase propeptide (513 amino acids), expressed from pETHIS6PropwbgL in E. coli
Consider B2, for which, in data set [5] (50 mM Tris-HCl buffer, pH 6.8 to 8.4), the “Optimal pH value” was 7.6. Besides, the “Metal ion dependency (Mn^2+)” value in data set [5] (addition of Mn^2+ to standard assays) is “not dependent on Mn^2+ ions”.

For the origin of these results see patent US9611285B2, “Fucosyltransferases and their applications” (Jennewein Biotechnologie GmbH, priority 2011, dated 2017).
